The source of these data is the NTF2 design screens of Basanta et al. (2020).

This data set in a line: protease stability score; higher = more stable; yeast display proteolysis, trypsin and chymotrypsin.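 Note: log10 excess protease needed over predicted unfolded state with 0 meaning unfolded.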

The sequence “DEDQLKVALKAIRAQNNNNPDELLKLLDENVRLQYGDKTVHGREEVKEMIKHWLSHWRWKIDVRRYSVHNGVARIEALVTINVNGKPQTFTVVIHVRAENGRIKEMHYHFDEEDQEKIRS” came in with a protease stability score of 1.37.

For the sequence “DEDQLRNIAHKLNEVWQNGDPDEMKKLLDPNVKFRYGDKTVQGMNEYVTILREMVKRIDHAHVRDFTAHNGRIDIDIQFDVNGRTVSAKVSYVVDNGKVKRAKFDPKNMKKLQS”, the protease stability score turned out to be 0.036.

With “DEDQMAETLFDEIRKIWETGSEEDAKKMMDPNAHVHVGDKEVTGREEIAKRLHDEAKKADHINLTLEDVEVKGDKAQLHVRFQLHVNGKRDERRIVFVFRNHNGRLIMVTASDS”, the protease stability score stood at 1.44.

“DEDQMEDLKRKWEKNDWRRFARNADPNVRVEVGDRRYHGRTDALRAMKIIEDTADRIQIDRVKSTNGKVTVDLVLVVNGNKIRARFEAVVHNGQVKHFTMKFRDKDDKRRFNEAMS” registered a protease stability score of 0.582.

Turning to “DEDQNRKMEHALRKNDWTRLAEQADKDVKVHIGDKVLHGREEVLKYLKRFQENVDHIEIKRMEATGNKVTVEYDVNFDGTTLDVTFKMVVQNGTVEHMTFDFRSEEQEHEAKKAYG”, the protease stability score was determined as 0.627.

“DEDQNTVFEEVKKAIRTGDEEMLKTLMDPNVRLEYGDTEIHGREEAVRQISTRHNQLHVDEQIKDIKAHNGKVDVDFEVHRSHNGDPQHRRASARADVSNGSVKELVVKYDK” yielded a protease stability score of 0.014.

“DEDQQKEVEKMLQDRRTNNPERIRKMFDPNARVQVGDKTINGREDAKRYAEEERDQIRVEYKSINISVHNGRVQVDVRARFNHNGKPETRQFNLDASIHNGRIKEFQQRDDK” displayed a protease stability score of -0.163.

On to “DEDQQRKWEDWERHLRQNNEEKLVEMFDPNAKWVIGDKRWHGMEEAASKLATRVKNLHIEIRSMRVKVDGDTVEIDVLVTYTHNGQPSEKREILYIHAHNGEVKKVHFEDRE”, for which the protease stability score turned out to be 0.412.

“DEDQRRKLEDLLRAYRTGDEKRIVEMADPNVEMHVGDHEVHGMEKIARKQVRTNQEARVDYEDWRLDFQGDKVNFEFDLRRDHNGEPETHKVDMTIVFKNGRIKSQSVRNTK” gave a protease stability score of -0.135.

Sequence “DEDQVEVMRELWRAYEDGADDQLKKLVDPNARFEVGDKHIEGREEYARDMQRQRKEIRVHYREISIENREGRLHIDYIYQRTHNGQPQTVRQVVEVDIKNGVVQRQRVQDVS” had a protease stability score of 0.474.

In turn, “DEDQVLKVIEKALKAIQQGHREEAKKLGKPNVEVQAADQRDKGPDALLKMVEQVQKVGDKFEYKETRKKGGTVTTRVEVTFGGKTVEYEVNVQAEGGKVQKWEVRIDDDFIEQVKKS” came in with a protease stability score of 0.671.

For the sequence “DEDQVQRVREMIKAWQHNDPEKLMQQVDPNVKARVGDKTLQGREQMSKDLDRRRKEARFVIRVQEVDKRENRVQVNVKMKVNHNGHPHSFSFILNVEVHGDHIHTIHIERDK”, the protease stability score was 0.356.

Sequence “DEDQVRQANDNVIKAMKNGDPRKFKELFDPNARANYGDKEIHGMHTAMQRLVELLQQVDHIRIKDIKVENGHVHVDLVLEVNGRSVRFTITFRQSNGKVEELRMDPEDQKTLRR” had a protease stability score of -0.186.

Take “DEDQVRRIIQDLRRNNFEKMVELMDEDVKIDVGNYDYHGREAAHEILDRIRRQIDHIEYKSVTAQGDKIDVKAVAIINGKEWTFRVEVDADNGRIHSMKIRFRSEKEEQDYQKEVQ”: the protease stability score was found to be 1.11.

Sequence “DEDQVRRVADKMFKMAVNGNKDEMKKLGKPNVEYKYLDKEYEGPDALKRVADKVKKIGAKVETQRREVKGDKVTAVFRYNDGDHTVQTTAEVQYEGDVVDRARVEITDEVKKVAHKG” showed a protease stability score of -0.093.

Sequence “DEDRAKSFMQAVVDNDPDKILKMMDENVRIEYGNKEIHGHEDLRKFWDKLKDQVDHYQVDRYSIHNGTVNVDAQMVVNGVRVRFTIVAELRNGKVTSVKYRVTNPRQERQLDELWG” had a protease stability score of 1.23.

The sequence “DEDRARRLMEKMFKIILNGNDEEARKMGAPDVEYQYADKTFHGEEAMKYIVKVVKRVGVKVRQEKHEVHGDTATAHFQYENGDTTVETQAHVQYEGDKAKKVEVKNSDEVRKLVDQG” returned a protease stability score of 0.228.

As for “DEDREAKKNLENMQKVLEKGDPDKMSELVDEDVRFVVGDKTFQGREDVRRRMETNVKRVDHIEVQIKHYEVKNGRARADAVFRVEVNGKETTRKFDVQVKVENGRFRVEQIRYK”, the protease stability score was determined as 0.265.

Regarding “DEDREKEVVDILRDGNPDDAREMADENVTVRVGNKVIHGREEYHRFIKRMQDQADHRHIDSVHHRPGRVRIQFRAVVDGQKFSAQMTVKVENGRVKSAQLDATDESVKKILEHIFG”, the protease stability score turned out to be 1.16.

With “DEDREKRFAKHVADVLRTGDSDRLQELADENVRMRIGDKTYKGRENFTKALEELRNRVDHIDIKSVKVHNGRISIDFVMRHNGREQTAVLIMHIHNGRIESQEVHSK”, the protease stability score came out at 0.618.

In turn, “DEDREQEMLEKMVQIWEEGDEEKMVRLADPNVTVRVGDKNVHGRKHLREELQKERKQVDHFYVRHITIHNGTVNLDVEYNHNGQREQATVIAKVHDGRIKELSVHSS” displayed a protease stability score of -0.204.

Sequence “DEDRKAREFIHDEQRAFEQNNPDDIVRLADPNVRVNIGEHDVRGHEDFKKWVDELLEKYDQINFKVTSVSVRGDHIEATVMIQNQKNGEDDTHVVLITLKDHNGRLLIEMIQER” yielded a protease stability score of 0.315.

Sequence “DEDRLRELVKKFVDAMRTNDEDRIREMMDKDVRVEVGDTVIKGHNEAKKWAKRLRERADHIHFDSVHVQGDRAEVDFQVRHNGKTDRNVLVLRMNNGRVQELRVHTK” gave a protease stability score of 1.81.

As for “DEDRLREQATNFIEAMQTGDTKRVDEQIDKDAQLVVGEKKYEGREQISTFVKEMHHQFDHVRLQRVTVSGNKVLLDVVMDFNGKDLRINIVIHMNNGKISQVQVDYTNPEDAKTARG”, the protease stability score was found to be 0.587.

Sequence “DEDRMKRLVRIFEHGDEDKLRKQADENATLKVGNHEIHGREEVQTFAQILKERVDHFHVRRVDLKGNSITALVRATVNGQSVEFKVIIVVQNGRIKKITIHATSEEQMKQLDKLFS” gave a protease stability score of 0.959.

In the case of “DEDRMRELMKVMMDAVRNGNQEQAYKVMDEGGEFHVGDKTVRGPEQVKEYVKEVQDWGNHVEYKETHYEGDTATVKTQAHLGDVTVDFEVHYVVKGNKLKRFEVRFNKEQIKEFKKS”, the protease stability score worked out at 0.593.

“DEDRMRKLLEQFLTALLQGDPEKMMELADEDVRMTYGDKEYHGREQVRDWAKDYRDKVDHASVHSYEVHGDKAQAIVVANVNGRTLSYTVVVRFQDGRAKHIKFESS”: the protease stability score turned out to be 2.23.

On to “DEDRMTEAEKILKENNPDQMRDLFDENAKAEIGDNDLHGREHIVEEQRRYNEKVDHVQYHSVTFSNGKMRFDVRASVNGKKFRFQAEFHLDNGKIKHIKIDFRDEEDEKEFKRVVG”, for which the protease stability score is 0.66.

Take “DEDRQQTLADELVKALEKGDFEKIEKLADPNVRVEIGDRHVRGREQASKELKKYTDRVDEVRIDSLEVQGEKVSADFRFNVDGHTIRLTAEITFHNGRIKMMRFHFTNEDQERRYKS”: the protease stability score turned out to be 1.02.

For “DEDRRAKELAERLDEALRTGDEERLQRLFDKDVRFDIGDKTIHGRTEAARQMVTHANRADHVHMKVTDLKRHGSRIVVVVHFRQNINGKKDSRDVKIEVKLEGDRIKVVRATYR”, the protease stability score was determined as 0.888.

“DEDRRAREWVETMQDIVENNNERDMKKLFDPNARVSVGDREYHGEDEIAHVLQREMENADNIHIEVKSIIVHGDKVTVDLTVSVQVNGKTETDRVRMVLKDKDGRIQVVSVQQT” displayed a protease stability score of 0.597.

Sequence “DEDRTRRMLEKVFEYVVKGDVDHVRKHGKPNVRYEYADKKKEGEEVYKLIVKIVKKVGAEAKRREQEVKGDTMRANFQYNKGDKTVQTTAEAQYEGDKADKLRAELTDEVKKVVHQG” yielded a protease stability score of -0.152.

For “DEDRVRKVAKEVFEMLKKGDVDKLKELGKEDVVFQFGDERVKGVEEYRRIMKEMQDQGVQHEVKKAQVKDDTAKMVTVVTYGNKDVQLTAEATYEGGRLKEARVENTEEYKKIAKKS”, the protease stability score was -0.084.

Regarding “DEDRVRRHLEKAFKVIQNGNEEEAKKIGAPDVEYHYADKELEGEEAVIVAVRIVKKIGAEVKTQEEEVKGNEMRATFQYKKGDTTVQTKATVVYEGDKLKKARVELSDEVKKIIHQG”, the protease stability score is -0.111.
